Target: MBP-Cnn fusion containing the WT PReM domain (MBP-Cnn-WT) (Drosophila melanogaster)
Assay: SEC-MALS; purified MBP-Cnn fusions; equal volume of protein at 15, 75 or 300 uM loaded onto the column; expected monomer mass 67.4 kDa (by MS)

stoichiometry N: 2
Substance: MBP-Cnn fusion containing the WT PReM domain (MBP-Cnn-WT) (domain or fragment)

Reference: publication PMC3988887
